Drawing on publication doi:10.1101/773556, this text covers fold decrease of dH against wild-type EftM^HM4 and Kd for 1 substance.

Holding throughout (assay): ITC
Experiment [1] has as its target EftM^HM4 W170F (Pseudomonas aeruginosa strain PAHM4).
The target of experiment [2] is EftM^HM4 W196F (Pseudomonas aeruginosa strain PAHM4).
For experiment [3], the target named is EF-Tu methyltransferase EftM from P. aeruginosa strain PAHM4 (EftM^HM4), wild-type (Pseudomonas aeruginosa strain PAHM4).
For experiment [4] the target is unchanged. The source holds these as a separate data set.

Like-named read-outs stand apart in the source and are kept apart here.

Take “translation elongation factor EF-Tu of P. aeruginosa PAO1 (tufB), wild-type (from UniProt P09591 1-397) (natural protein)”: the fold decrease of dH against wild-type EftM^HM4 in experiment [1] and in experiment [2] was over 10 fold throughout. The dissociation constant Kd is 28 µM in experiment [3] and 27 µM in experiment [4].
